From article PMC8618851, “The RNA Directed DNA Methylation (RdDM) Pathway Regulates Anthocyanin Biosynthesis in Crabapple (Malus cv. spp.) Leaves by Methylating the McCOP1 Promoter” come the findings set out here.

For the series, the target named is McDRM2 (Malus cv. spp. (crabapple), UniProt UPI0010AA5BBA 1-600). Kind of series: EMSA; 10x binding buffer, MgCl2, NP-40; 2 uL 10x binding buffer, 1 uL 50% glycerol, 1 uL 100 mM MgCl2, 1 uL 1% NP-40, 2 ug protein, 2 uL 0.1 uM biotin oligo; 25 C, 20 min; 12% native PAGE; pH and salt not given. To be noted: protein: recombinant; tags: MBP (pMAL-C2X); label: 3' biotin. A general note: In EMSA bound probe runs differently from free probe, usually more slowly.
Sequence of McDRM2 (chain, as listed by the source): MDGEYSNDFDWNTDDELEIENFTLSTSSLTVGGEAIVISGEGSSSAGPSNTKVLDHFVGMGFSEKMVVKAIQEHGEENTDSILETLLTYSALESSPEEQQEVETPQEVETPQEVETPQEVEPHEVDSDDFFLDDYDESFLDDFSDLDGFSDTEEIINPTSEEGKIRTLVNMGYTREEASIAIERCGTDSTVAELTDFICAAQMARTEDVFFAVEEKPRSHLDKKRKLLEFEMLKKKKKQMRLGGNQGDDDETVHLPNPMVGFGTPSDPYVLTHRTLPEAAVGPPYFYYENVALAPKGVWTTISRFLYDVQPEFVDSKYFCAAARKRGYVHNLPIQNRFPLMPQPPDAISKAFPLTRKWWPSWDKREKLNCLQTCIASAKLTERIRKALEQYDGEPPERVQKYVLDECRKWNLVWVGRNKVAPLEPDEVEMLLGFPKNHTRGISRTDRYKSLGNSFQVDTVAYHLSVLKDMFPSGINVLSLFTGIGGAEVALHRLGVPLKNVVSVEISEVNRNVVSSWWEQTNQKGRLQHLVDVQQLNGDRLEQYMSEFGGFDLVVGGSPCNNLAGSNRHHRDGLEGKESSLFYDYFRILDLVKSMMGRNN

B1: McCOP1 promoter SINE-site probe (dsDNA)
DNA 1: TTCAACGTATTAACTTTATCGGTTCGGTGGACAATTCC
DNA 2: GGAATTGTCCACCGAACCGATAAAGTTAATACGTTGAA
Consider B1, for which the binding result is reported as “no binding”.
